From the supplement of paper PMC9170038 come the findings set out here.

This data set has as its system MS2 coat protein. Put plainly: apparent KD of MS2 coat protein; designed switch direction (-1 OFF switch, 1 ON switch): -1; higher = weaker reporter binding. A digest of the protocol:
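On Illumina chips, designed RNA switches with common flanks were made by stalled E. coli RNA polymerase. Titrations with SNAP-549-labelled MS2 coat protein, doubling from 0.7 or 1.5 nM to 3 µM, were done with no input, with 200 uM small-molecule ligand, or with an oligonucleotide input. Apparent KD is the median per design over clusters, from curve fits of normalised cluster fluorescence.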

The mark [1] stands for this setting: input ligand: microRNA oligo, concentration not stated.
[2] abbreviates: Eterna round: R95, input ligand: microRNA oligo, concentration not stated.

On to “GGAGGUAUUUAGGAUAUGAUGUACGACGCAGGUUCAGAAGGGAGUACAUGAGGAUCACCCAUGUGGCCUCAUCC [Eternabot (L2) Solution 47] (Eterna round: R97, puzzle: Exclusion 6)”, for which the “apparent KD of MS2 coat protein” value was 1200 nM (input ligand: FMN 200 uM) and 2010 nM (input ligand: none).
For “CUGAAUAGAGGAUAUUGUACUGCUGACAUGAGGAUCACCCAUGUAUGUUAACUCGGCCGUCGAGAAGGCUAACAAA [BotMod 13 - Jieux - Exclusion 5] (Eterna round: R97, puzzle: Exclusion 5)”, the “apparent KD of MS2 coat protein” value (input ligand: FMN 200 uM) came out at 16.9 nM and the “apparent KD of MS2 coat protein” value (input ligand: none) was found to be 41.2 nM.
In the case of “UUAAUGAUUGUGAGGAUAUCGGAUAGAUAGAUAUUUGAGAAGGUACAUGAGGAUCACCCAUGUGUGAUUAGAGA [Brourd's EX4 #67] (Eterna round: R97, puzzle: Brourd's mod of Exclusion 4)”, the “apparent KD of MS2 coat protein” value runs as follows: (input ligand: FMN 200 uM) 155 nM; (input ligand: none) 111 nM.
For “GUUUAGUGAGGAUAUGUGGCUUCGAUCGUGAGAUCGAGGCUACAGAAGGCACAUGAGGAUCACCCAUGUUCCUC [salish99_ex4_r4_104] (Eterna round: R97, puzzle: Exclusion 4)”, the “apparent KD of MS2 coat protein” value runs as follows: (input ligand: FMN 200 uM) 516 nM; (input ligand: none) 38.9 nM.
As to “CUUGAGCAGGUAGGAUAUACGAUGUGUCGGCGAGUAGAAGGACCUGCGAUCCACUUGAGGAUCACCCAAGUUCGCAGGAGAACA [Mutated MS2 EX1.18] (Eterna round: R96, puzzle: Exclusion NG 1)”, the “apparent KD of MS2 coat protein” value reads like this: (input ligand: FMN 200 uM) 103 nM; under setting [1], 22 nM; (input ligand: none) 33.4 nM.
With “UGCAUGGUAGGAUAUACGGAACAUUAGGGUUUGUUAUGUGGACAUGAGGAUCACCCAUGUAGAAGGGCCGUGCU [JL-ex2-2.15 mat747 mod] (puzzle: Exclusion 2)”, the “apparent KD of MS2 coat protein” value under setting [2] was 40.4 nM.
In the case of “UGUACGAUGCGUGCUGACAUGCGUCGUGCAGCAGGUGGAACAUGAGGAUCACCCAUGUCCUCAUUUGCUCGUCUUAU [Mat - Sensor v3 - Turn-off var 2 - D21] (Eterna round: R96, puzzle: Sensor v3, turn-off variant 2)”, the “apparent KD of MS2 coat protein” value runs as follows: (input ligand: FMN 200 uM) 35.1 nM; under setting [1], 104 nM; (input ligand: none) 39.1 nM.
For “GGUAGAGAGCAGGAUAUCUUGGGUAAGUAUUGUAGAGAAGGGCUCACAUGAGGAUCACCCAUGUGGUCCAAGAU [JL Dibiri mod 06] (puzzle: Exclusion 6)”, the “apparent KD of MS2 coat protein” value under setting [2] turned out to be 12.8 nM.
With “CUAAAUCAUGUAGGAUAUGCGUGGCAAAGCUAUGCAGAAGGACAUGAGGAUCACCCAUGUCUUUCCGUCUGAGUACAGACGGGA [Mat - Exclusion NG 1 - Mod of JL - D46] (Eterna round: R96, puzzle: Exclusion NG 1)”, the “apparent KD of MS2 coat protein” value stood at 166 nM (input ligand: FMN 200 uM), 21.7 nM under setting [1] and 26.6 nM (input ligand: none).
On the same counts, the results for “UUAAUUAAUUAUAUAAGAUCACAUGAGGAUCACCCAUGUAUAUAGGAUAUCAGCUCGAUUAGAGCUGAGAAGGAUAUACAAUAU [ExNG3/3-B1] (Eterna round: R96, puzzle: Exclusion NG 3)” are 172 nM, 138 nM and 147 nM.
Take “GAUAGAGCAGGAUAUCGAGAUCCGCACAUGAGGAUCACCCAUGUUCGGUCGAAAGACCGACGAGAAGGGCUCUAUC [Omei Ex5 E8] (Eterna round: R97, puzzle: Exclusion 5)”: the “apparent KD of MS2 coat protein” value reads like this: (input ligand: FMN 200 uM) 639 nM; (input ligand: none) 603 nM.
In the case of “UACACUGCAUGAGGAUCAAACAUGAGGAUCACCCAUGUAUAGCAAGCUUUUUGCUCGUCUUAUAAUUAUGUAGUGUA [Electric Eye 12 - Jieux - Sensor, turn-off variant 1] (Eterna round: R97, puzzle: Sensor, turn-off variant 1)”, the “apparent KD of MS2 coat protein” value reads like this: (input ligand: FMN 200 uM) 15 nM; (input ligand: none) 15.7 nM.
In the case of “UGACGCACGCGAGGAUAUUCCCACGAAACAAACAACGAAGGGUACAUGAGGAUCACCCAUGUGGCGAAGAAGGCGCGCGUCCGG [Eternabot solution 1] (Eterna round: R96, puzzle: Exclusion NG 2)”, the “apparent KD of MS2 coat protein” value (input ligand: FMN 200 uM) came to 923 nM, the “apparent KD of MS2 coat protein” value under setting [1] is 503 nM and the “apparent KD of MS2 coat protein” value (input ligand: none) worked out at 1310 nM.
For the sequence “UUAGAAUUGUUAGGAUAUUAAUUAUUUUUUAGUAUGAUCUACAUGAGGAUCACCCAUGUUAAAUAUAAGAAGGAACGUUUUAUU [JR_ExcNG2_Sub097] (Eterna round: R96, puzzle: Exclusion NG 2)”, under setting [1], the “apparent KD of MS2 coat protein” value was 40.7 nM.
Consider “GCACGAAGUGGAGGAUAUCUGGGCGAGGAGCGCAGAGAAGGCCACAUGAGGAUCACCCAUGUGUUCCACGGAUCGCAAACGUGC [exng1 ex2] (Eterna round: R96, puzzle: Exclusion NG 1)”, for which the “apparent KD of MS2 coat protein” value (input ligand: FMN 200 uM) came out at 69.3 nM, the “apparent KD of MS2 coat protein” value under setting [1] amounted to 14.4 nM and the “apparent KD of MS2 coat protein” value (input ligand: none) stood at 20.9 nM.
With “UAUAUAUAGUAAGGAUAUGUAAUUAUUUUACAAACAGAAGGUACUGACAUGAGGAUCACCCAUGUUUUAGUGUGGGCAUGUAGA [JMF's solution 46] (Eterna round: R96, puzzle: Exclusion NG 1)”, under setting [1], the “apparent KD of MS2 coat protein” value came out at 39.7 nM.
Regarding “CUGGUCCGAGGAUAUAUUAUGUGAAACAUGAGGAUCACCCAUGUAAUAUGAUGGAUGUAAAUAGAAGGCGGGCUAG [Mat - Exclusion 5 - JL mod - D26] (puzzle: Exclusion 5)”, the “apparent KD of MS2 coat protein” value was found to be 30.8 nM (Eterna round: R95, input ligand: FMN 200 uM); 23.2 nM under setting [2]; 24.3 nM (Eterna round: R95, input ligand: none).
For “GUGCAGGUAGGAUAUCCACCGGCAAACAUGAGGAUCACCCAUGUGACGCUCCCUUGUCUUGGAGAAGGGCCGGCAU [Xetemaaren] (puzzle: Exclusion 5)”, the “apparent KD of MS2 coat protein” value under setting [2] came to 25.2 nM.
On to “GGACCGAGUGUGAGGAUAUGCUGGUCCUUGGAUCAGCAGAAGGCACAUGAGGAUCACCCAUGUGGAGACGGUCC [Eli bmx4 4.33] (Eterna round: R97, puzzle: Brourd's mod of Exclusion 4)”, for which the “apparent KD of MS2 coat protein” value by setting is: (input ligand: FMN 200 uM) 1050 nM; (input ligand: none) 87.4 nM.
Consider “AAGAAGUAAGGAUAUGGCCGGGUCCCUGGGUUUGGACCCGGCUAGAAGGUACAUGAGGAUCACCCAUGUAAGAA [Excls4-IX] (puzzle: Exclusion 4)”, for which the “apparent KD of MS2 coat protein” value under setting [2] came to 13.1 nM.
For “GUCAGCUCGUCAGGAUAUACAUGCGUGCUUCGGCACGAAUUUAAGAUCACAUGAGGAUCACCCAUGUAGAAGGGACGAGCUGAU [ENG2/3-B2] (Eterna round: R96, puzzle: Exclusion NG 2)”, the “apparent KD of MS2 coat protein” value is, setting by setting: (input ligand: FMN 200 uM) 819 nM; under setting [1], 441 nM; (input ligand: none) 600 nM.
“CUGAGCAGACGGAGAUCCAACAUGAGGAUCACCCAUGUCUCAAAAGCUUUUUGCUCGUCUUAUCCUCCUCUGUUCAC [Esquitian 1] (Eterna round: R97, puzzle: Sensor, turn-off variant 1)”: the “apparent KD of MS2 coat protein” value stood at 26.4 nM (input ligand: FMN 200 uM) and 26 nM (input ligand: none).
As to “AGUCCUGAUGUUAGGAUAUGCAACUAGCCAUUGUAGCAGAAGGAACAUGAGGAUCACCCAUGUACAAAGACCCA [Xeonbera] (puzzle: Brourd's mod of Exclusion 4)”, the “apparent KD of MS2 coat protein” value under setting [2] was 26.6 nM.
